System: BMS human breast cancer cells
Assay: Experimental metastasis in vivo (lung colonization)
Parameters: species or system mouse
Experimental: FIGS. 5A, 5B, 5C. ScFvs Bc-12 and Bc-15 prevent hematogenous breast cancer metastasis. (A) Left: Lungs of female SCID mice 32 days after i.v. injection with 1×10^5 BMS human breast cancer cells. The mice were treated with 50 μg Bc-12 or Bc-15 in 100 μl PBS (i.v.) on days 1, 2, 3 and 4. Controls received PBS only. Right: Numbers of lung surface metastases for each animal, horizontal lines indicate the median number of metastases per group. […] (B) Left: Histological sections of the above mouse lungs, stained with hematoxylin/eosin. Metastases were counted in six sets of three consecutive sections separated by 140 μm for each lung. Right: Number of metastases counted in sections of individual lungs, horizontal lines indicate median number of metastases per animal group. […] (C) Effect of Bc-15 treatment on established breast cancer metastasis in the lungs. Female SCID mice were injected i.v. with 5×10^5 DsRed2-tagged MDA-MB 435 breast cancer cells expressing constitutively activated integrin αvβ3D723R. Mice were treated on day 7, 9, 11 and 14, 16, 18 by i.v. injections of scFv Bc-15 or its RGE mutant, Mut-15 (40 μg/dose). Metastatic foci were enumerated by fluorescence microscopy on day 19. Left: Images of typical tumor foci within the lung tissue in Mut-15 (top) or Bc-15 treated mice (bottom) (bar: 50 μm). Right: Number of metastatic foci within the lung tissue of each animal, horizontal line: median number of metastases per group.
Experimental metastasis in vivo. 1×10^5 BMS human metastatic breast cancer cells were injected into the lateral tail veins of 9 week old female C.B17/lcrTac-Prkdc scid mice (Taconic Farms) (n=8 to 10) together with a 50 μg bolus dose of scFv. I.v. Injections of 50 μg scFv bolus doses were repeated on days 2, 3 and 4 of the experiment. Control animals received vehicle only (PBS). For in vivo use, endotoxin was removed from scFv preparations on Detoxy-Gel resin (Pierce). Remaining traces ranged from 0.001 to 0.07 EU endotoxin/mg scFv (LAL test, Bio Whittaker). On day 32, mice were euthanized, dissected, the lungs excised, fixed in Bouin's solution, and metastatic foci counted at the lung surface under a dissecting microscope. The same lungs were embedded in paraffin, and 10 μm sections were cut and stained with hematoxylin/eosin. Per lung, 7 sets of three consecutive sections were collected, separated by 140 μm. The sections were randomized and coded, and the total number of metastatic foci counted.
To test directly whether targeting activated integrin αvβ3 with the ligand mimetic antibodies Bc-12 and-15 affects target organ colonization by circulating metastatic breast cancer cells, 1×10^5 BMS human breast cancer cells were injected intravenously into female C.B-17 SCID mice, together with 50 μg sterile, endotoxin free preparations of Bc-12 or Bc-15 (n=8-10 mice per group). At an average blood volume of 2 ml per mouse, this provides an initial scFv concentration of 1 μM. The clearance time for scFv antibody fragments in the circulation is less than 1 h. Kortt et al., Biomol. Eng, 18: 95-108, 2001. Tumor cells may remain in the circulation for several days. Therefore, scFv antibody injections (50 μg bolus doses, i.v.) were repeated on the second, third and fourth day. […] After 32 days, the mice were euthanized, dissected and analyzed by gross examination. […] The lungs were excised, fixed, and metastatic foci counted at the lung surface. Each of the control treated mice had tumor foci on their lungs (range: 8 to 68 foci per lung). In stark contrast, only two animals in the Bc-12 treated group, and 1 animal in the Bc-15 treated group had one visible nodule at their lung surface (FIG. 5A).
Per lung, six sets of three consecutive sections, separated by 140 μm, were collected. The sections were randomized and coded, and the total number of metastatic foci counted. All control animals had metastases in their lung tissues (range: 7 to 48 counts per lung), and those were of considerable size (FIG. 5B top image). […]

B1: Bc-12: patient derived human scFv antibody against activated αvβ3 with RGD motif in CDR-H3; cDNA ATCC PTA-6303 (protein)
scFv: MAQVQLVQSGAEVKKPGASVKVSCKASGYTFSNYGITWVRQAPGQGLEWMGWINNGNTHYAQKFQGRVTMTTDTSTSTAYMELRSLRSDDTAVYYCARDPRGDDEPYWGQGTLVTVSSGGGGSGGGGSGGGGSEIVLTQSPLSLPVTLGQPASISCRSSQNLVYSDGNTYLSWFQQRPGQSPRRLIYKVSNRDSGVPDRFSGSGSGTDFTLKISRVEAEDIGVYYCMQGTHWPPRTFGQGTKVEIKRGLGGLVDYKDDDDK
50 μg i.v. days 1-4, 32 days
  health status during the experiment: appeared healthy
50 μg i.v. days 1-4, day 32, P<0.001 Kruskal Wallis
  number of lung surface metastases versus PBS control: significantly fewer metastases
P<0.005 Kruskal Wallis
  number of metastases in lung sections versus PBS control: significantly fewer detectable metastases
SCID mice, 50 μg i.v. days 1-4, day 32, n=8-10 per group, controls 8 to 68 foci per lung
  animals with one visible nodule at lung surface: two
Day 32
  gross examination at dissection: No obvious abnormalities
Histological sections, day 32, all controls positive
  mice with microscopically detectable metastases in lung tissue: 3 of 10
